# Laboratory results published in patent US20240342305A1 (published 2024).
# Tests used:
# [1] = target: T1, BSA (bovine serum albumin), negative control protein (bovine, UniProt P02769 25-607); assay: single phage ELISA, BSA coated 100 ng/well
# T1 construct: Coated as negative control in the single phage ELISA
# Description: (§1) 96 clones were randomly selected in the clones obtained from the fourth round of screening and their binding capability to human GPC3 was analyzed by single phage ELISA (enzyme-linked immunosorbent assay). For this purpose, each single colony was inoculated in 300 μl of 2×YT/ampicillin medium (containing 2% glucose) in a 96-well deep-well plate and cultured with shaking at 37° C. and 250 rpm for 16 hours. 20 μl of culture was inoculated into 500 μl of 2×YT/ampicillin medium (containing 0.1% glucose) and shaken at 37° C. and 250 rpm for 1.5 hours. To prepare the helper phage solution, 75 μl of M13KO7 (titer of 3×10¹² pfu/ml) was taken and mixed into 15 ml of 2×YT medium and added into a culture plate at 50 μl/well, and incubated at 37° C. and 150 rpm for 30 minutes. And then prepared kanamycin solution (180 μl of 50 mg/ml kanamycin was taken and added into 15 ml of 2×YT medium) was added at 50 μl/well and incubated with shaking for 16 hours at 37° C. and 250 rpm. Finally, cells were precipitated by centrifugation (30 mins, 5000×g, 4° C.) and the supernatant was transferred to a new 96-well deep-well plate.
# (§2) For single phage ELISA, 100 ng/well of antigen GPC3 and negative control protein BSA (100 μl/well) were used in a 96-well MediSorp ELISA plate (purchased from Nunc) and coated overnight at 4° C. […] Extinction values were measured at 450 nm with an enzyme-linked immunosorbent (Bio-Rad).
# [2] = target: T2, human GPC3 recombinant protein (purchased from Shanghai Rui Jin Biotechnology Co., Ltd.) (human, UniProt P51654 25-559, limits assumed); assay: single phage ELISA, GPC3 coated 100 ng/well
# T2 construct: Bought recombinant protein; also called huGPC3; antigen GPC3
# Description: as §1, §2
# T1 sequence (P02769 25-607 limits assumed): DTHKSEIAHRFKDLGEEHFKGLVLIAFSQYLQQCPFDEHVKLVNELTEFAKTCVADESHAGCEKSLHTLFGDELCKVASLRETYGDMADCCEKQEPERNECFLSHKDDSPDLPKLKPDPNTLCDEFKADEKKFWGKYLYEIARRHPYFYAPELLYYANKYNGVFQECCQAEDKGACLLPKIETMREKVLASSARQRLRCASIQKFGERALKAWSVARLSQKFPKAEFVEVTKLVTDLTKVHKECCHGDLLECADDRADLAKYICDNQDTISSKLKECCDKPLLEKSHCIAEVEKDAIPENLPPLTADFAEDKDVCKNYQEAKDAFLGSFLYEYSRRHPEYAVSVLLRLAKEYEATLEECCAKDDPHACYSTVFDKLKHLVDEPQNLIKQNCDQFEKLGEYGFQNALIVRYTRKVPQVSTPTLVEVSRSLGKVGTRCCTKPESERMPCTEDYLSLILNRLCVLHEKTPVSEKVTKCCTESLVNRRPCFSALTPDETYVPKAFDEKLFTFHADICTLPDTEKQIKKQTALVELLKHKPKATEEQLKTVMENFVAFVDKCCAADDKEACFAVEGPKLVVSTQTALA
Binder,binding result [1],binding result [2]
"single chain antibody P7D4 (phage-displayed scFv) (scFv, Tested as single phage (M13, phagemid pCantab 5E) culture supernatant in ELISA) scFv: QVQLQESGGGLVQPGRSLRLSCAASGFTFSSYAMHWVRQAPGKGLEWVSAISGSGGSTYYADSVKGRFTISRDNSKNTLYLQMNSLRAEDTAVYYCAKDRRGSHADAFDVWGQGTLVTVSSGGGGSGGGGSGGGGSQSALTQPPSASGSPGQSVTISCTGTSSDVGGYNYVSWYQQYPGKAPKLLIYGNSNRPSGVPDRFSGSKSGTSASLAITGLQAEDGADYYCQSYDSSLRVVFGGGTKVTVLG",no binding,binds
"single chain antibody P1B12E (phage-displayed scFv) (scFv, Tested as single phage (M13, phagemid pCantab 5E) culture supernatant in ELISA; the phage coat fusion is not described) scFv: QVQLVESGAEVKKPGASVKVSCKASGGTFSSYAISWVRQAPGQGLEWMGGIIPIFGTANYAQKFQGRVTITADESTSTAYMELSSLRSEDTAVYYCAKSPFSGTPGEYWGRGTLVTVSSGGGGSGGGGSGGGGSEIVLTQSPGTLSLSPGERATLSCRASQSVSSNYLAWYQQKPGQAPRLLIYGASRRATGIPDRFSGSGSGTDFTLTISRVEPEDFAVYHCQQYGASPKTFGQGTKLEIKR",no binding,binds
